Paper PMC11662665, “Phosphorylation-mediated disassembly of C-terminal binding protein 2 tetramer impedes epigenetic silencing of pluripotency in mouse embryonic stem cells” (Nucleic Acids Research, 2024)

Tests used:
[1] = target: the molecule itself; test: pull-down; 1 ug GST-tagged and 1 ug His6-tagged recombinant Ctbp2, pulled down with GSH beads; 25 mM Tris-Cl pH 7.5, 0.1% NP-40, 150 mM NaCl, NADH, BSA, 10% glycerol, 4 C; for the phosphorylated form after in vitro phosphorylation with HA-Chk2
GST-CTBP2 = target: T1, GST-CTBP2 (UniProt P56546 1-445); test: pull-down; recombinant truncated FLAG-Suz12 and GST-CTBP2 incubated in vitro; pull down with glutathione Sepharose; settings: both partners purified
T1 construct: also called GST-tagged Ctbp2; source: E. coli BL21 DE3 pLysS, purified (glutathione Sepharose 4B)
T1 sequence (P56546 whole entry, the tested form may be a part): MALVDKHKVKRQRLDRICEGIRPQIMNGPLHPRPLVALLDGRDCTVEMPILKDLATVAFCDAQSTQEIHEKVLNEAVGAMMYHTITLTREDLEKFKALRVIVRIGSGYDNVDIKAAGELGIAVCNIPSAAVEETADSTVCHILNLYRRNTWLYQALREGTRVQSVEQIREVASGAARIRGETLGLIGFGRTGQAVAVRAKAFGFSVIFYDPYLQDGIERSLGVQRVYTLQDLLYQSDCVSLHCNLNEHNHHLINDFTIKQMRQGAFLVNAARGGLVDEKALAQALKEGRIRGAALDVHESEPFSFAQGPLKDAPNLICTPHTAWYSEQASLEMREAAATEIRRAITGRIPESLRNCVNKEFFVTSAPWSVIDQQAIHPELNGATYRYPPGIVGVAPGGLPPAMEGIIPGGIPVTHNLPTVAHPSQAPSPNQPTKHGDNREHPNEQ

Binder | binding result [1] | binding result (GST-CTBP2)
GST- or His6-tagged recombinant CTBP2, wild type (the two copies of the in vitro self-binding assay) (natural protein, Two differently tagged copies of one protein; each copy carries one tag; The same constructs stand singly as m31 (His6) and m33 (GST); also called recombinant wild-type Ctbp2; source: E. coli BL21 DE3 pLysS, purified (glutathione Sepharose 4B or Ni-NTA agarose)) not shown | binds | 
FLAG-Suz12 1–138 (recombinant truncated Suz12, N-terminal region) (domain or fragment, human, UniProt Q15022 1-138, looked up, the methods call the cloned PRC2 components human) MAPQKHGGGGGGGSGPSAGSGGGGFGGSAAVAAATASGGKSGGGSCGGGGSYSASSSSSAAAAAGAAVLPVKKPKMEHVQADHELFLQAFEKPTQIYRFLRTRNLIAPIFLHRTLTYMSHRNSRTNIKRKTFKVDDML |  | binds
